Consider six molecules from patent publication US20250304644A1, “PEPTIDES TRIPLE AGONISTS OF GIP, GLP-1 AND GLP-2” (BAINAN BIOTECH APS, priority 2021, published 2025).

*1 amine or outer side, *2 acyl side, *3 side chain or, on linkers, in order; H or OH if unused. Where a SMILES comes first, the peptide text is derived from it. Where no end group is shown, it is not given here. Side-chain parts run from the residue outwards. [ ]: non-standard residue; d: D form. The star is where a group is joined. C18 diacid = O=C(O)CCCCCCCCCCCCCCCCC(=O)*; γGlu = O=C(O)[C@H](CCC(=O)[*:2])N[*:1]; AEEA = NCCOCCOCC(=O)O; Aib = CC(C)(N)C(=O)O

The target in one assay is T1, human SNP-tagged GLP-2R (Homo sapiens, UniProt O95838).
T1 construct: expressed in transfected cells; host or cells: HEK293A
T1 sequence (O95838 1-553): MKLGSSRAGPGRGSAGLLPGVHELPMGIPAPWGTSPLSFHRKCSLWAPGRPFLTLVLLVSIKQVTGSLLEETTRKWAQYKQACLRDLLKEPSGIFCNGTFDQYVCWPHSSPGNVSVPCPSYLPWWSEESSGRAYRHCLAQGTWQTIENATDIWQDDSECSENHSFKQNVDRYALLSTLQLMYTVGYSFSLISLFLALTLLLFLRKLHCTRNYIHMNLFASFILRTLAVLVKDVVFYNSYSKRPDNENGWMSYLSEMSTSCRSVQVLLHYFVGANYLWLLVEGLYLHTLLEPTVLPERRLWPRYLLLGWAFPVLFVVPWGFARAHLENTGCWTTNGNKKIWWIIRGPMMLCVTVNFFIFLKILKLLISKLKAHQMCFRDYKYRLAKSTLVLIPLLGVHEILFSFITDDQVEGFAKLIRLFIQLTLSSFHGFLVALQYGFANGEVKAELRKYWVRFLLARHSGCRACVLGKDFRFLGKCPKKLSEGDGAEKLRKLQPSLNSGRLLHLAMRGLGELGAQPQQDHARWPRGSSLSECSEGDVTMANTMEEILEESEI
Briefly: Receptor internalization assay, HEK293A cells expressing human SNAP-tagged GLP-2R. Type of assay: cell-based. The note with it: AUC of sigmoid curves up to 1 μM; 60 minutes at 37° C.

The target of the next assay is T2, human GLP-1R (Homo sapiens, UniProt P43220).
T2 construct: host or cells: COS-7
T2 sequence (P43220 24-463): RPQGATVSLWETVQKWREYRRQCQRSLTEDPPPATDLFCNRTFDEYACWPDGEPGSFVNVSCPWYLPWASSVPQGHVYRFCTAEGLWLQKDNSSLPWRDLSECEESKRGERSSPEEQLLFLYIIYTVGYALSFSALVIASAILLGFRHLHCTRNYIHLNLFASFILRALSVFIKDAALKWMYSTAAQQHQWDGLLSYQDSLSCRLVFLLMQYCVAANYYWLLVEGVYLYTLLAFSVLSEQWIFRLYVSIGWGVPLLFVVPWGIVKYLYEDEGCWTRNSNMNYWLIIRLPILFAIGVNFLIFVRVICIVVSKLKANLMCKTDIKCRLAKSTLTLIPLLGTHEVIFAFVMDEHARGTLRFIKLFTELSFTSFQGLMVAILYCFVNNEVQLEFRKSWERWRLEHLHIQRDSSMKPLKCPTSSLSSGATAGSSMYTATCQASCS
Briefly: cAMP assay (HitHunter) in transiently transfected COS-7 cells expressing human GLP-1R. Type of assay: cell-based. The note with it: COS-7; normalized to highest concentration of the endogenous ligand; read-out: Efficacy GLP-1R (Emax). For orientation: Cyclic AMP is a second messenger, typically raised through Gs and lowered through Gi signalling.

The target of the next assay is T3, human GIPR (Homo sapiens, UniProt P48546).
T3 construct: host or cells: COS-7
T3 sequence (P48546 22-466): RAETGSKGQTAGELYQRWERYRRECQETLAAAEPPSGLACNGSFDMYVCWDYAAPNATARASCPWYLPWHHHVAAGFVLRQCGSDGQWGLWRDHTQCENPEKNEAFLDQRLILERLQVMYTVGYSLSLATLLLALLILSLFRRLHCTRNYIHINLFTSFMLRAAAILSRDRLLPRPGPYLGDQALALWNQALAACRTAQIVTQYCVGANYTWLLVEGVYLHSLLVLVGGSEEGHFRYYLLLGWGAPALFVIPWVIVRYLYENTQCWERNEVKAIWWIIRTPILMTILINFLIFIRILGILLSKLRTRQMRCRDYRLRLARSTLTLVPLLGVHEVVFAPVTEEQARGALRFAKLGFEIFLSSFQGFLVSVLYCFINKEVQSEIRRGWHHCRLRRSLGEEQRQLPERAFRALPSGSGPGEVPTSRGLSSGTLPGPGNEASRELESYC
Briefly: cAMP assay (HitHunter) in transiently transfected COS-7 cells expressing human GIPR. The note with it: COS-7; normalized to highest concentration of the endogenous ligand; read-out: Efficacy GIPR (Emax). Type of assay: cell-based.

A further assay has as its target T4, human SNAP-tagged GIPR (Homo sapiens, UniProt P48546).
T4 construct: host or cells: HEK293A
T4 sequence (P48546 22-466): T3 sequence (P48546 22-466)
Briefly: Receptor internalization assay, HEK293A cells expressing human SNAP-tagged GIPR. The note with it: AUC of sigmoid curves up to 1 μM; 60 minutes at 37° C. Type of assay: cell-based.

For the next assay, the target named is T5, human GLP-2R (Homo sapiens, UniProt O95838).
T5 construct: host or cells: COS-7
T5 sequence (O95838 1-553): T1 sequence (O95838 1-553)
Description: cAMP assay (HitHunter) in transiently transfected COS-7 cells expressing human GLP-2R. Type of assay: cell-based. The note with it: COS-7; normalized to highest concentration of the endogenous ligand; read-out: Efficacy GLP-2R (Emax).

A further assay deals with T6, human SNAP-tagged GLP-1R (Homo sapiens, UniProt P43220).
T6 construct: expressed in transfected cells; host or cells: HEK293A
T6 sequence (P43220 24-463): as the sequence (P43220 24-463) above
Description: Receptor internalization assay, HEK293A cells expressing human SNAP-tagged GLP-1R. Type of assay: cell-based. The note with it: AUC of sigmoid curves up to 1 μM; 60 minutes at 37° C.

For a further assay, the target named is T7, human SNAP-tagged GLP-2R (human, UniProt O95838 1-553, SNAP tag labeled with Tag-Lite SNAP-Lumi4-Tb).
T7 sequence (looked up): T1 sequence (O95838 1-553)
Briefly: cell-based or functional assay.

Assay [1] deals with T8, Human N-terminally SNAP-tagged GIPR (human, UniProt P48546 22-466, SNAP tag labeled with Tag-Lite SNAP-Lumi4-Tb).
T8 sequence (looked up): T3 sequence (P48546 22-466)
Description: cell-based or functional assay.

The target in assay [2] is human GLP-1R (glucagon-like peptide-1 receptor) (human, UniProt P43220 24-463). Description: cell-based or functional assay.
Assay [3] has as its target T9, human GIPR (glucose-dependent insulinotropic polypeptide receptor) (human, UniProt P48546 22-466).
T9 sequence (looked up): T3 sequence (P48546 22-466)
Description: cell-based or functional assay.

Assay [4] addresses T10, human GLP-2R (glucagon-like peptide-2 receptor) (human, UniProt O95838 1-553).
T10 sequence (looked up): T1 sequence (O95838 1-553)
Briefly: cell-based or functional assay.

As usually defined, the Emax is the size of the effect at its maximum, as opposed to the concentration needed.

For the molecule `CC[C@H](C)[C@H](NC(=O)[C@H](Cc1ccccc1)NC(=O)[C@H](CC(=O)O)NC(=O)[C@H](CCCNC(=N)N)NC(=O)[C@H](C)NC(=O)[C@H](C)NC(=O)[C@H](CC(C)C)NC(=O)[C@H](CC(N)=O)NC(=O)[C@H](CC(=O)O)NC(=O)[C@H](CC(C)C)NC(=O)[C@@H](NC(=O)[C@@H](NC(=O)[C@H](CO)NC(=O)[C@H](Cc1ccc(O)cc1)NC(=O)[C@H](CC(=O)O)NC(=O)[C@H](CO)NC(=O)[C@@H](NC(=O)[C@H](Cc1ccccc1)NC(=O)[C@@H](NC(=O)CNC(=O)[C@H](CC(=O)O)NC(=O)[C@H](C)NC(=O)[C@@H](N)Cc1c[nH]cn1)[C@@H](C)O)[C@@H](C)CC)[C@@H](C)O)[C@@H](C)CC)C(=O)N[C@@H](CC(N)=O)C(=O)N[C@@H](Cc1c[nH]c2ccccc12)C(=O)N[C@@H](CC(C)C)C(=O)N[C@H](C(=O)N[C@@H](CCC(N)=O)C(=O)N[C@H](C(=O)N[C@@H](CCCCN)C(=O)NCC(=O)N[C@@H](CCCCN)C(=O)N[C@@H](CCCCN)C(=O)N[C@@H](CCCCNC(=O)COCCOCCNC(=O)COCCOCCNC(=O)CC[C@H](NC(=O)CCCCCCCCCCCCCCCCC(=O)O)C(=O)O)C(=O)O)[C@@H](C)O)[C@@H](C)CC` [Compound 34] (H-HADGTFISDYSTILDNLAARDFINWLIQTKGKKK([AEEA-AEEA-γGlu-C18 diacid])-OH; N-terminus assumed), on human SNP-tagged GLP-2R, the “Absolute hGLP-2R internalization (AUC)” value was 8.0. The Emax at human GLP-1R stood at 97%; on human GIPR it was 103%; at human GLP-2R it was 91%. Besides, the “Absolute hGIPR internalization (AUC)” value at human SNAP-tagged GIPR was 14.7. Moreover, the “Absolute hGLP-1R internalization (AUC)” value on human SNAP-tagged GLP-1R came out at 6.0.

For HADGSFSDEMNTILDNLAARDFINWLIQTKITD (ligand) [hGLP-2], in the assay with human SNAP-tagged GLP-2R, the “Absolute hGLP-2R internalization (AUC)” value was 48.6 AUC.

On to HADGTFTSDYST[Aib]LDKLAARDFINWLIQTKGKKNDWKHNITQK([AEEA-AEEA-γGlu-C18 diacid])-OH [Compound 27], for which, in assay [1], the “Absolute hGIPR internalization (AUC)” value is 9 AUC and the “Relative hGIPR internalization (%)” value was 24%. For the same molecule, in [2], the “EC50 (nM) GLP-1R” value stood at 0.05 nM, the “Efficacy GLP-1R” value was found to be 115 and the “logEC50 GLP-1R” value was determined as 10.3. In assay [3], the “EC50 (nM) GIPR” value is 0.562 nM, the “Efficacy GIPR” value worked out at 124 and the “pEC50 GIPR” value is 9.3. For the same molecule, in assay [4], the “EC50 (nM) GLP-2R” value was 3.2 nM, the “Efficacy GLP-2R” value came out at 85 and the “logEC50 GLP-2R” value was 8.5.

B1: Compound 19 (peptide)
peptide: HADGTFTSDYSTILDNLAARDFINWLIQTKGKK([γGlu-C18 diacid])-OH
modifications: N-terminus assumed
SMILES: CC[C@H](C)[C@H](NC(=O)[C@H](Cc1ccccc1)NC(=O)[C@H](CC(=O)O)NC(=O)[C@H](CCCNC(=N)N)NC(=O)[C@H](C)NC(=O)[C@H](C)NC(=O)[C@H](CC(C)C)NC(=O)[C@H](CC(N)=O)NC(=O)[C@H](CC(=O)O)NC(=O)[C@H](CC(C)C)NC(=O)[C@@H](NC(=O)[C@@H](NC(=O)[C@H](CO)NC(=O)[C@H](Cc1ccc(O)cc1)NC(=O)[C@H](CC(=O)O)NC(=O)[C@H](CO)NC(=O)[C@@H](NC(=O)[C@H](Cc1ccccc1)NC(=O)[C@@H](NC(=O)CNC(=O)[C@H](CC(=O)O)NC(=O)[C@H](C)NC(=O)[C@@H](N)Cc1c[nH]cn1)[C@@H](C)O)[C@@H](C)O)[C@@H](C)O)[C@@H](C)CC)C(=O)N[C@@H](CC(N)=O)C(=O)N[C@@H](Cc1c[nH]c2ccccc12)C(=O)N[C@@H](CC(C)C)C(=O)N[C@H](C(=O)N[C@@H](CCC(N)=O)C(=O)N[C@H](C(=O)N[C@@H](CCCCN)C(=O)NCC(=O)N[C@@H](CCCCN)C(=O)N[C@@H](CCCCNC(=O)CC[C@H](NC(=O)CCCCCCCCCCCCCCCCC(=O)O)C(=O)O)C(=O)O)[C@@H](C)O)[C@@H](C)CC
Take B1: in [1], the “Absolute hGIPR internalization (AUC)” value amounted to 8.9 AUC and the “Relative hGIPR internalization (%)” value amounted to 24%. In assay [2], the “EC50 (nM) GLP-1R” value worked out at 0.06 nM, the “Efficacy GLP-1R” value was 106 and the “logEC50 GLP-1R” value is 10.2. Further, in [3], the “Efficacy GIPR” value stood at 92 and the “pEC50 GIPR” value stood at 9.2. In assay [4], the “EC50 (nM) GLP-2R” value was found to be 31.6 nM, the “Efficacy GLP-2R” value came out at 94 and the “logEC50 GLP-2R” value is 7.5.

Take HADGTFTSDYSTILDKK([AEEA-AEEA-γGlu-C18 diacid])AARDFINWLIQTKGKKNDWKHNITQ-OH [Compound 23]: in assay [1], the “Absolute hGIPR internalization (AUC)” value was 1.2 AUC and the “Relative hGIPR internalization (%)” value turned out to be 3%. In assay [2], the “EC50 (nM) GLP-1R” value was determined as 0.05 nM, the “Efficacy GLP-1R” value was 105 and the “logEC50 GLP-1R” value was 10.3. Besides, in [3], the “EC50 (nM) GIPR” value was determined as 7.08 nM, the “Efficacy GIPR” value was found to be 82 and the “pEC50 GIPR” value was determined as 8.2. Besides, in [4], the “EC50 (nM) GLP-2R” value is 3.5 nM, the “Efficacy GLP-2R” value came out at 95 and the “logEC50 GLP-2R” value was 8.5.

For HADGTFTSDYSTILDKLAARDFINWLIQTKGKKNDWK([AEEA-AEEA-γGlu-C18 diacid])HNITQ-OH [Compound 25], in assay [1], the “Absolute hGIPR internalization (AUC)” value was determined as 13.1 AUC and the “Relative hGIPR internalization (%)” value worked out at 35%. In addition, in assay [2], the “EC50 (nM) GLP-1R” value is 0.05 nM, the “Efficacy GLP-1R” value is 116 and the “logEC50 GLP-1R” value stood at 10.3. In assay [3], the “EC50 (nM) GIPR” value was 0.398 nM, the “Efficacy GIPR” value was 107 and the “pEC50 GIPR” value worked out at 9.4. In assay [4], the “EC50 (nM) GLP-2R” value turned out to be 7.9 nM, the “Efficacy GLP-2R” value was found to be 117 and the “logEC50 GLP-2R” value stood at 8.1.
